Data set [1] has as its system RACPP with substrate PLGLEEA.
The test system of data set [2] is RACPP with substrate PLGC(me)AG.
The subject of data set [3] is RACPP with substrate TIAHLA.
Data set [4] deals with RACPP with substrate TGRAAA.
The subject of data set [5] is RACPP with substrate GVAYSGA.
Data set [6] concerns RACPP with substrate YGRAAA.
The subject of data set [7] is RACPP with substrate RLQLK(Ac)L.

The source of these data is patent US20220288223.

Sequence of MMP-9 (chain, as listed by the source): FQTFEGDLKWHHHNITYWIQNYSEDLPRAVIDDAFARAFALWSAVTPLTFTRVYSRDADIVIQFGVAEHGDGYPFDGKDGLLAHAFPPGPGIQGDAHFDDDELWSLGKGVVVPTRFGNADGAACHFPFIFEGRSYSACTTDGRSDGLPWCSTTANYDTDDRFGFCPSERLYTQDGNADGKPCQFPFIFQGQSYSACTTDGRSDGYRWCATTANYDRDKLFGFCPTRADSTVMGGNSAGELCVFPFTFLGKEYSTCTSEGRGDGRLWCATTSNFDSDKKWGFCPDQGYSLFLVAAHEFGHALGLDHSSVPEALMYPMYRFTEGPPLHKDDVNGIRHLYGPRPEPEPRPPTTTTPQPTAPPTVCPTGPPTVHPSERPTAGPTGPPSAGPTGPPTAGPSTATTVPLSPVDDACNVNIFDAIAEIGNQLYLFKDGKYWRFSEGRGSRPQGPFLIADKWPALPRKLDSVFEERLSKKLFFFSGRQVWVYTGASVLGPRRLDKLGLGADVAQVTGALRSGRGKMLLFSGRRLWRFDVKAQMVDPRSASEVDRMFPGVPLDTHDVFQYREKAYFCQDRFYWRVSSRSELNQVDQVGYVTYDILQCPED

For the substance MMP-9, the Kcat/Km in data set [1] turned out to be 1480; in data set [2], 13500.

In the case of Elastase, the Kcat/Km in data set [3] was determined as 18200; in data set [4] it was 349; in data set [5], 4550; in data set [2], 4000; in data set [6] it was 943; in data set [7], 13400.
